Measurements: the supplement of paper PMC9233669
This sample holds only a part of the variants without activity.

Legend:
biotinyl-Trp-oxazolone = assay: self-aminoacylation, catalytic enhancement (BWO) (fold over background); higher = more active; k-Seq, kA / k0A0; sequences stand for … in GGGAAUGGAUCCACAUCUACGAAUUC…UUCACUGCAGACUUGACGAAGCUG
Summary of the method: (§1)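 Mutagenized RNA pools with a 21-nt variable region (0.43 μM) reacted with each biotinyl-aminoacyl-oxazolone at 2–1250 μM. Reactions ran in 50 μL HEPES/NaCl/KCl/MgCl2/CaCl2 buffer with 5% acetonitrile, pH 6.9–7.0, for 90 minutes at room temperature. Streptavidin-captured RNA was quantified by triplicate qPCR and Illumina sequencing, and per-sequence fraction reacted was fit to a pseudo-first-order model with 1000 bootstraps. Catalytic enhancement is median kA divided by the uncatalyzed rate, the low-activity peak of a bimodal Gaussian fit.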

biotinyl-Val-oxazolone = assay: self-aminoacylation, catalytic enhancement (BVO) (fold over background); higher = more active; k-Seq, kA / k0A0; sequences stand for … in GGGAAUGGAUCCACAUCUACGAAUUC…UUCACUGCAGACUUGACGAAGCUG
Summary of the method: as §1

biotinyl-Phe-oxazolone = assay: self-aminoacylation, catalytic enhancement (BFO) (fold over background); higher = more active; k-Seq, kA / k0A0; sequences stand for … in GGGAAUGGAUCCACAUCUACGAAUUC…UUCACUGCAGACUUGACGAAGCUG
Summary of the method: as §1

biotinyl-Leu-oxazolone = assay: self-aminoacylation, catalytic enhancement (BLO) (fold over background); higher = more active; k-Seq, kA / k0A0; sequences stand for … in GGGAAUGGAUCCACAUCUACGAAUUC…UUCACUGCAGACUUGACGAAGCUG
Summary of the method: as §1

biotinyl-Ile-oxazolone = assay: self-aminoacylation, catalytic enhancement (BIO) (fold over background); higher = more active; k-Seq, kA / k0A0; sequences stand for … in GGGAAUGGAUCCACAUCUACGAAUUC…UUCACUGCAGACUUGACGAAGCUG
Summary of the method: as §1

biotinyl-Met-oxazolone = assay: self-aminoacylation, catalytic enhancement (BMO) (fold over background); higher = more active; k-Seq, kA / k0A0; sequences stand for … in GGGAAUGGAUCCACAUCUACGAAUUC…UUCACUGCAGACUUGACGAAGCUG
Summary of the method: as §1

Sequence | self-aminoacylation (biotinyl-Trp-oxazolone) | self-aminoacylation (biotinyl-Val-oxazolone) | self-aminoacylation (biotinyl-Phe-oxazolone) | self-aminoacylation (biotinyl-Leu-oxazolone) | self-aminoacylation (biotinyl-Ile-oxazolone) | self-aminoacylation (biotinyl-Met-oxazolone)
AAGAUUGCCAAUAGUCGCAAG [Fam3.1 aminoacylation ribozyme variant] | 1.88 | 1.81 | 1.69 | 1.63 | 1.51 | 1.8
AUUCACCUAGGUCCUCGGGUG [Fam2.2 aminoacylation ribozyme variant] | 4.22 | 3.13 | 30.2 | 5.91 | 3.08 | 4.59
AUUACCCUGCUCAACGAGUGA [Fam2.1 aminoacylation ribozyme variant] | 6.69 | 3.25 | 24.7 | 5.59 | 2.33 | 5.64
CUACUUCAAACAAGUGGUCUG [Fam1A.1 aminoacylation ribozyme variant] | 0.516 | 0.919 | 0.734 | 0.885 | 0.968 | 0.7
UCACACUUCAAGCAAUCGCUC [Fam1B.1 aminoacylation ribozyme variant] | 1.45 | 1.32 | 1.94 | 1.3 | 1.43 | 1.46
CCACACUUCCGGCAAUCGGUC [Fam1B.1 aminoacylation ribozyme variant] | 2.13 | 2.12 | 5.25 | 1.59 | 1.72 | 2.02
CCACACUUCACGCUAUCGGUC [Fam1B.1 aminoacylation ribozyme variant] | 0.951 | 1.17 | 1.09 | 0.971 | 1.13 | 1.03
CUUACCCUUGUCAUCGAGUGA [Fam2.1 aminoacylation ribozyme variant] | 5.14 | 3.03 | 7.91 | 4.14 | 2.56 | 4.62
UUACUUCAAACAAUUGGUCUG [Fam1A.1 aminoacylation ribozyme variant] | 1.61 | 1.12 | 1.76 | 1.14 | 1.43 | 1.2
CAGUUUGCUAAUAGACGCAAG [Fam3.1 aminoacylation ribozyme variant] | 1.61 | 0.858 | 1.08 | 0.895 | 0.91 | 0.814
UCACACUUCAAGCACUCGGUC [Fam1B.1 aminoacylation ribozyme variant] | 0.771 | 1.32 | 0.873 | 0.927 | 0.94 | 0.873
AUUCACGUAGGGCAUCGGGUG [Fam2.2 aminoacylation ribozyme variant] | 5.13 | 5.03 | 43.3 | 6.02 | 3.79 | 4.63
AUACACCUCGGUCAUCGGGUG [Fam2.2 aminoacylation ribozyme variant] | 3.09 | 3.18 | 23.3 | 3.14 | 2.82 | 3.08
AUUACCAUGGUCAGCGAGUGA [Fam2.1 aminoacylation ribozyme variant] | 6.31 | 3.19 | 30.7 | 6.19 | 3.11 | 5.49
AUUCGCCUAGGUCGUCGGGUG [Fam2.2 aminoacylation ribozyme variant] | 1.51 | 2.22 | 11.6 | 2.18 | 1.56 | 2.28
AAUCACCUAGGUCAUCGGGGG [Fam2.2 aminoacylation ribozyme variant] | 3.96 | 2.77 | 10.6 | 3.66 | 2.91 | 3.21
CCACACUUGAAGCAACCGGUC [Fam1B.1 aminoacylation ribozyme variant] | 0.938 | 1.04 | 0.953 | 0.699 | 0.886 | 0.694
CCACACUUCAAUCAAUCUGUC [Fam1B.1 aminoacylation ribozyme variant] | 0.342 | 0.58 | 0.748 | 0.343 | 0.425 | 0.429
CCACACUUCAACCAAUCGGGC [Fam1B.1 aminoacylation ribozyme variant] | 2.09 | 2.93 | 3.78 | 2.24 | 1.91 | 1.75
AUUCACCAAGGGCAUCGGGUG [Fam2.2 aminoacylation ribozyme variant] | 4.74 | 5.01 | 35.1 | 6.01 | 4.37 | 5.2
AUUAACCUGGUCAUCGAGUUA [Fam2.1 aminoacylation ribozyme variant] | 0.836 | 1.02 | 0.827 | 1.06 | 1 | 1.34
CUACUUCUAACCAUCGGUCUG [Fam1A.1 aminoacylation ribozyme variant] | 0.45 | 0.761 | 0.859 | 0.653 | 0.703 | 0.659
AAUUUUGCUUAUAGUCGCAAG [Fam3.1 aminoacylation ribozyme variant] | 2.28 | 2.14 | 3.02 | 2.29 | 2.39 | 2.17
CCAUACUUCAAGUAAUCGGUC [Fam1B.1 aminoacylation ribozyme variant] | 5 | 0.861 | 8.18 | 1.07 | 0.914 | 0.825
AAGUUUGCUAAUAGUAGCAAC [Fam3.1 aminoacylation ribozyme variant] | 0.859 | 1.15 | 1.08 | 0.631 | 1.09 | 0.942
AUUCACCUAGGUCAUCGGGGC [Fam2.2 aminoacylation ribozyme variant] | 5.91 | 4.81 | 20.7 | 11.5 | 4.85 | 7.18

Sequence | self-aminoacylation (biotinyl-Trp-oxazolone) | self-aminoacylation (biotinyl-Val-oxazolone) | self-aminoacylation (biotinyl-Phe-oxazolone) | self-aminoacylation (biotinyl-Leu-oxazolone) | self-aminoacylation (biotinyl-Ile-oxazolone) | self-aminoacylation (biotinyl-Met-oxazolone)
AAGUUUGCCACUAGUCGCAAG [Fam3.1 aminoacylation ribozyme variant] | 0.807 | 1.15 | 0.709 | 0.973 | 0.918 | 0.991
ACACACCUCAAGCAAUCGGUC [Fam1B.1 aminoacylation ribozyme variant] | 0.883 | 0.927 | 1.19 | 0.763 | 0.848 | 0.58
AGUCACCUAGGACAUCGGGUG [Fam2.2 aminoacylation ribozyme variant] | 6.31 | 5.02 | 26.6 | 4.11 | 4.13 | 4.24
CCACAGUUCAAGCAAUCGGUG [Fam1B.1 aminoacylation ribozyme variant] | 3.62 | 3.14 | 25.9 | 5.44 | 3.29 | 4.04
CUAUUUCAAACAAUCGGUGUG [Fam1A.1 aminoacylation ribozyme variant] | 0.757 | 0.83 | 0.988 | 0.992 | 0.727 | 1.01
AUUACCUUGGUCAUCGAGAGA [Fam2.1 aminoacylation ribozyme variant] | 0.946 | 1.19 | 0.809 | 0.907 | 0.924 | 0.957
AUUCACUUAAGUCAUCGGGUG [Fam2.2 aminoacylation ribozyme variant] | 9.67 | 5.11 | 71.7 | 12.4 | 5.72 | 8.88
AAGUGUGCUAUUAGUCGCAAG [Fam3.1 aminoacylation ribozyme variant] | 0.997 | 1.43 | 2.19 | 0.947 | 1.29 | 1.36
CCGCAGUUCAAGCAAUCGGUC [Fam1B.1 aminoacylation ribozyme variant] | 6.86 | 1.82 | 5.75 | 1.85 | 1.58 | 1.96
AUUCACCUAGGACAUCGGGUC [Fam2.2 aminoacylation ribozyme variant] | 0.858 | 1.25 | 0.549 | 1.42 | 1.22 | 0.87
CCACACUUCAACCAAUCGGUC [Fam1B.1 aminoacylation ribozyme variant] | 35.2 | 1.5 | 60.5 | 2.17 | 1.38 | 1.38
CUAAUUCAAACAAUCCGUCUG [Fam1A.1 aminoacylation ribozyme variant] | 0.609 | 0.764 | 0.937 | 0.578 | 0.682 | 0.635
CCACACUUCAACCACUCGGUC [Fam1B.1 aminoacylation ribozyme variant] | 0.978 | 1.28 | 0.849 | 1.1 | 1.18 | 1.24
AUUACCCGGAUCAUCGAGUGA [Fam2.1 aminoacylation ribozyme variant] | 7.26 | 4.04 | 38.4 | 7.92 | 3.43 | 7.04
AGUCACUUAGGUCAUCGGGUG [Fam2.2 aminoacylation ribozyme variant] | 5.93 | 4.36 | 46.1 | 6.96 | 4.65 | 5.12
AAGUUUGCUAUUAGUCUCAAG [Fam3.1 aminoacylation ribozyme variant] | 0.975 | 1.07 | 1.66 | 0.928 | 0.998 | 0.976
CCGCUCUUCAAGCAAUCGGUC [Fam1B.1 aminoacylation ribozyme variant] | 26.3 | 1.76 | 35.5 | 1.92 | 1.42 | 1.6
AAGUUUGAGAAUAGUCGCAAG [Fam3.1 aminoacylation ribozyme variant] | 1.59 | 1.29 | 2.05 | 1.25 | 1.48 | 1.2
ACUCACCUAGGUCGUCGGGUG [Fam2.2 aminoacylation ribozyme variant] | 3.42 | 2.4 | 6.16 | 2.25 | 2.58 | 2.56
AUUUCCCUAGUCAUCGAGUGA [Fam2.1 aminoacylation ribozyme variant] | 7.31 | 4.03 | 31.5 | 6.58 | 3.46 | 6.04
CGACUUCAAACAAGCGGUCUG [Fam1A.1 aminoacylation ribozyme variant] | 1.45 | 1.37 | 1.23 | 1.11 | 1.39 | 1.6
CUACUUCAAACAUUUGGUCUG [Fam1A.1 aminoacylation ribozyme variant] | 0.678 | 0.984 | 0.677 | 0.802 | 1.13 | 0.873
CCACAGUUCAAGAAAUCGGUC [Fam1B.1 aminoacylation ribozyme variant] | 1.67 | 1.18 | 1.71 | 1.22 | 1.06 | 1.22
UUUACCCCGGUCAUCGAGUGA [Fam2.1 aminoacylation ribozyme variant] | 6.13 | 3.64 | 35.5 | 6.37 | 3.31 | 6.14
AUUCACCUACCUCAUCGGGUG [Fam2.2 aminoacylation ribozyme variant] | 2.79 | 2.33 | 22.3 | 4.3 | 2.21 | 2.69
